Common to all, as to settings: glycan lost; control: wild type
The nature of data set [1]: flow cytometry of cell surface TMPRSS2, HEK293.
Data set [2] is described as follows: co-immunostaining with ER marker KDEL, HEK293.
Data set [3] can be described thus: co-immunostaining with Golgi marker GM130, HEK293.

B1: TMPRSS2 (transmembrane protease serine 2): N286Q (protein)
parent chain: MPPAPPGGESGCEERGAAGHIEHSRYLSLLDAVDNSKMALNSGSPPAIGPYYENHGYQPENPYPAQPTVVPTVYEVHPAQYYPSPVPQYAPRVLTQASNPVVCTQPKSPSGTVCTSKTKKALCITLTLGTFLVGAALAAGLLWKFMGSKCSNSGIECDSSGTCINPSNWCDGVSHCPGGEDENRCVRLYGPNFILQVYSSQRKSWHPVCQDDWNENYGRAACRDMGYKNNFYSSQGIVDDSGSTSFMKLNTSAGNVDIYKKLYHSDACSSKAVVSLRCIACGVNLNSSRQSRIVGGESALPGAWPWQVSLHVQNVHVCGGSIITPEWIVTAAHCVEKPLNNPWHWTAFAGILRQSFMFYGAGYQVEKVISHPNYDSKTKNNDIALMKLQKPLTFNDLVKPVCLPNPGMMLQPEQLCWISGWGATEEKGKTSEVLNAAKVLLIETQRCNSRYVYDNLITPAMICAGFLQGNVDSCQGDSGGPLVTSKNNIWWLIGDTSWGSGCAKAYRPGVYGNVMVFTDWIYRQMRADG
With B1, the localisation_or_trafficking entry in data set [1], in data set [2] and in data set [3] was “no change” in each case.

B2: TMPRSS2 (transmembrane protease serine 2): N250Q/N286Q (protein)
parent chain: MPPAPPGGESGCEERGAAGHIEHSRYLSLLDAVDNSKMALNSGSPPAIGPYYENHGYQPENPYPAQPTVVPTVYEVHPAQYYPSPVPQYAPRVLTQASNPVVCTQPKSPSGTVCTSKTKKALCITLTLGTFLVGAALAAGLLWKFMGSKCSNSGIECDSSGTCINPSNWCDGVSHCPGGEDENRCVRLYGPNFILQVYSSQRKSWHPVCQDDWNENYGRAACRDMGYKNNFYSSQGIVDDSGSTSFMKLNTSAGNVDIYKKLYHSDACSSKAVVSLRCIACGVNLNSSRQSRIVGGESALPGAWPWQVSLHVQNVHVCGGSIITPEWIVTAAHCVEKPLNNPWHWTAFAGILRQSFMFYGAGYQVEKVISHPNYDSKTKNNDIALMKLQKPLTFNDLVKPVCLPNPGMMLQPEQLCWISGWGATEEKGKTSEVLNAAKVLLIETQRCNSRYVYDNLITPAMICAGFLQGNVDSCQGDSGGPLVTSKNNIWWLIGDTSWGSGCAKAYRPGVYGNVMVFTDWIYRQMRADG
As for B2, the localisation_or_trafficking result in data set [2] is “changes”.

B3: TMPRSS2 (transmembrane protease serine 2): N250Q (protein)
parent chain: MPPAPPGGESGCEERGAAGHIEHSRYLSLLDAVDNSKMALNSGSPPAIGPYYENHGYQPENPYPAQPTVVPTVYEVHPAQYYPSPVPQYAPRVLTQASNPVVCTQPKSPSGTVCTSKTKKALCITLTLGTFLVGAALAAGLLWKFMGSKCSNSGIECDSSGTCINPSNWCDGVSHCPGGEDENRCVRLYGPNFILQVYSSQRKSWHPVCQDDWNENYGRAACRDMGYKNNFYSSQGIVDDSGSTSFMKLNTSAGNVDIYKKLYHSDACSSKAVVSLRCIACGVNLNSSRQSRIVGGESALPGAWPWQVSLHVQNVHVCGGSIITPEWIVTAAHCVEKPLNNPWHWTAFAGILRQSFMFYGAGYQVEKVISHPNYDSKTKNNDIALMKLQKPLTFNDLVKPVCLPNPGMMLQPEQLCWISGWGATEEKGKTSEVLNAAKVLLIETQRCNSRYVYDNLITPAMICAGFLQGNVDSCQGDSGGPLVTSKNNIWWLIGDTSWGSGCAKAYRPGVYGNVMVFTDWIYRQMRADG
On to B3, for which the localisation_or_trafficking entry is given as “changes” in data set [2] and “no change” in data set [3].

(Values after publication PMC9598255.)
